This is an account of results in patent US20230220042A1 (SHANGHAI JIAO TONG UNIVERSITY SCHOOL OF MEDICINE, published 2023).

One test addresses human OX40 (human) (UniProt P43489). Nature of the test: cell-based or functional assay.
The next test concerns the target T1, Biotin-FcγRIIB (human, UniProt P31994 43-217, limits assumed, biotin label).
T1 construct: Soluble labelled protein used to stain and sort the display cells; also called human FcγRIIB; CD32b
T1 sequence (looked up): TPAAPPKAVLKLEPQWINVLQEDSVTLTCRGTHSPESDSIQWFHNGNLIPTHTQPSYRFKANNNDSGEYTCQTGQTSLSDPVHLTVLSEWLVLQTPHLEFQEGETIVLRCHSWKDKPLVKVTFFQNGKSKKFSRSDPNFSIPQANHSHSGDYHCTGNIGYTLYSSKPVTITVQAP
Nature of the test: NGS of 3T3 display library C2 flow-sorted for FcγRIIB binding.

human OX40 (human), sequence (P43489 29-277): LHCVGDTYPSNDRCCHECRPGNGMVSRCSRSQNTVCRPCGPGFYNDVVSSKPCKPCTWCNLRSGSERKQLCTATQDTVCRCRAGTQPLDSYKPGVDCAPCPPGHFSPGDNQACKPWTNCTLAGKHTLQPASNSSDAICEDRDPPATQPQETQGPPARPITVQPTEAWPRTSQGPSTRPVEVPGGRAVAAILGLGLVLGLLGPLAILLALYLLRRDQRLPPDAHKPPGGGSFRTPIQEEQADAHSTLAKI

B1: anti-human OX40 antibody, human IgG2 Fc mutant Mut_23 (V266L/S267E/E269K/P271G) (antibody, name in EU numbering)
heavy: QVQLQESGPGLVKPSGTLSLTCAVSGGSISSSIWWSWVRQPPGKGLEWIGEIHHSGNTNCNPSLKSRVTISIDKSKNQFSLKLTSVTAADTAVYYCARAGTGTTLDYWGQGTLVTVSSASTKGPSVFPLAPCSRSTSESTAALGCLVKDYFPEPVTVSWNSGALTSGVHTFPAVLQSSGLYSLSSVVTVPSSNFGTQTYTCNVDHKPSNTKVDKTVERKCCVECPPCPAPPVAGPSVFLFPPKPKDTLMISRTPEVTCVVVDLEHKDGEVQFNWYVDGVEVHNAKTKPREEQFNSTFRVVSVLTVVHQDWLNGKEYKCKVSNKGLPAPIEKTISKTKGQPREPQVYTLPPSREEMTKNQVSLTCLVKGFYPSDIAVEWESNGQPENNYKTTPPMLDSDGSFFLYSKLTVDKSRWQQGNVFSCSVMHEALHNHYTQKSLSLSPGK
light: EIVLTQSPGTLSLSPGERATLSCRASQSVSGDYLAWYQQKLGQAPRLLIYGASIRATGIPDRFSGSGSGTDFTLTISKLEPEDFAVYYCQQYGSSPLTFGGGTKVEIKRTVAAPSVFIFPPSDEQLKSGTASVVCLLNNFYPREAKVQWKVDNALQSGNSQESVTEQDSKDSTYSLSSTLTLSKADYEKHKVYACEVTHQGLSSPVTKSFNRGEC
With B1, in the test with human OX40 (human), the Average increased factor of the activity over wild-type IgG2 of two experiments was 9.8; the Average relative activity of two experiments is 0.43; the Experiment 1 CFSE fluorescence intensity, 0.01 µg/ml was 898; the Experiment 1 CFSE fluorescence intensity, 0.1 µg/ml was determined as 777. In the test with human OX40 (human), this molecule registered an Experiment 1 CFSE fluorescence intensity, 1 µg/ml of 843; an Experiment 1 average relative activity of 0.37; an Experiment 1 relative activity, 0.01 µg/ml of 0.26; an Experiment 1 relative activity, 0.1 µg/ml of 0.48. In addition, in the test with human OX40 (human), the Experiment 1 relative activity, 1 µg/ml was determined as 0.36; the Experiment 2 CFSE fluorescence intensity, 0.1 µg/ml amounted to 2160; the Experiment 2 CFSE fluorescence intensity, 1 µg/ml was 1600; the Experiment 2 average relative activity was 0.52. In the test with human OX40 (human), this molecule displayed an Experiment 2 relative activity, 0.1 µg/ml of 0.37 and an Experiment 2 relative activity, 1 µg/ml of 0.67.

B2: anti-human OX40 antibody, human IgG2 Fc mutant Mut_24 (V266L/S267E/H268S/E269G/P271T) (antibody, name in EU numbering)
heavy: QVQLQESGPGLVKPSGTLSLTCAVSGGSISSSIWWSWVRQPPGKGLEWIGEIHHSGNTNCNPSLKSRVTISIDKSKNQFSLKLTSVTAADTAVYYCARAGTGTTLDYWGQGTLVTVSSASTKGPSVFPLAPCSRSTSESTAALGCLVKDYFPEPVTVSWNSGALTSGVHTFPAVLQSSGLYSLSSVVTVPSSNFGTQTYTCNVDHKPSNTKVDKTVERKCCVECPPCPAPPVAGPSVFLFPPKPKDTLMISRTPEVTCVVVDLESGDTEVQFNWYVDGVEVHNAKTKPREEQFNSTFRVVSVLTVVHQDWLNGKEYKCKVSNKGLPAPIEKTISKTKGQPREPQVYTLPPSREEMTKNQVSLTCLVKGFYPSDIAVEWESNGQPENNYKTTPPMLDSDGSFFLYSKLTVDKSRWQQGNVFSCSVMHEALHNHYTQKSLSLSPGK
light: EIVLTQSPGTLSLSPGERATLSCRASQSVSGDYLAWYQQKLGQAPRLLIYGASIRATGIPDRFSGSGSGTDFTLTISKLEPEDFAVYYCQQYGSSPLTFGGGTKVEIKRTVAAPSVFIFPPSDEQLKSGTASVVCLLNNFYPREAKVQWKVDNALQSGNSQESVTEQDSKDSTYSLSSTLTLSKADYEKHKVYACEVTHQGLSSPVTKSFNRGEC
In the test with human OX40 (human), B2 yielded an Average increased factor of the activity over wild-type IgG2 of two experiments of 9.75; an Average relative activity of two experiments of 0.43; an Experiment 1 CFSE fluorescence intensity, 0.01 µg/ml of 912; an Experiment 1 CFSE fluorescence intensity, 0.1 µg/ml of 812. In the test with human OX40 (human), this molecule gave an Experiment 1 CFSE fluorescence intensity, 1 µg/ml of 816; an Experiment 1 average relative activity of 0.36; an Experiment 1 relative activity, 0.01 µg/ml of 0.24; an Experiment 1 relative activity, 0.1 µg/ml of 0.42. In the test with human OX40 (human), the Experiment 1 relative activity, 1 µg/ml is 0.41; the Experiment 2 CFSE fluorescence intensity, 0.1 µg/ml worked out at 2050; the Experiment 2 CFSE fluorescence intensity, 1 µg/ml turned out to be 1650; the Experiment 2 average relative activity worked out at 0.53. Besides, in the test with human OX40 (human), the Experiment 2 relative activity, 0.1 µg/ml was found to be 0.43 and the Experiment 2 relative activity, 1 µg/ml was found to be 0.64.

B3: human IgG2 anti-mouse CD40 surface displayed antibody, V234Q/V266L/S267E/H268S/E269V (antibody)
light chain (with the P2A rest): DTVLTQSPALAVSPGERVTISCRASDSVSTLMHWYQQKPGQQPKLLIYLASHLESGVPARFSGSGSGTDFTLTIDPVEADDTATYYCQQSWNDPWTFGGGTKLELKRTVAAPSVFIFPPSDEQLKSGTASVVCLLNNFYPREAKVQWKVDNALQSGNSQESVTEQDSKDSTYSLSSTLTLSKADYEKHKVYACEVTHQGLSSPVTKSFNRGECGSGATNFSLLKQAGDVEENPG
heavy: EVQLVESDGGLVQPGRSLKLPCAASGFTFSDYYMAWVRQAPTKGLEWVASISYDGSSTYYRDSVKGRFTISRDNAKSTLYLQMDSLRSEDTATYYCGRHSSYFDYWGQGVMVTVSSASTKGPSVFPLAPCSRSTSESTAALGCLVKDYFPEPVTVSWNSGALTSGVHTFPAVLQSSGLYSLSSVVTVPSSNFGTQTYTCNVDHKPSNTKVDKTVERKCCVECPPCPAPPQAGPSVFLFPPKPKDTLMISRTPEVTCVVVDLESVDPEVQFNWYVDGVEVHNAKTKPREEQFNSTFRVVSVLTVVHQDWLNGKEYKCKVSNKGLPAPIEKTISKTKGQPREPQVYTLPPSREEMTKNQVSLTCLVKGFYPSDIAVEWESNGQPENNYKTTPPMLDSDGSFFLYSKLTVDKSRWQQGNVFSCSVMHEALHNHYTQKSLSLSPGKLEPPPSTVSNMATVAVLVVLGAAIVTGAVVAFVMKMRRRNTGGKGGDYALAPGSQTSDLSLPDCKVMVHDPHSLA
notes: As m1 with the Fc mutations; copies: 2 + 2
On to B3, for which, in the test with Biotin-FcγRIIB, the “enrichment factor, percentage after 3rd sorting/percentage after 2nd sorting” value is 11.4 ratio; the “percentage after 2nd sorting” value stood at 0.01%; the “percentage after 3rd sorting” value amounted to 0.09%.

B4: human IgG2 anti-mouse CD40 surface displayed antibody, V266L/S267D/H268D/E269D/P271Q (antibody, name in EU numbering)
light chain (with the P2A rest): DTVLTQSPALAVSPGERVTISCRASDSVSTLMHWYQQKPGQQPKLLIYLASHLESGVPARFSGSGSGTDFTLTIDPVEADDTATYYCQQSWNDPWTFGGGTKLELKRTVAAPSVFIFPPSDEQLKSGTASVVCLLNNFYPREAKVQWKVDNALQSGNSQESVTEQDSKDSTYSLSSTLTLSKADYEKHKVYACEVTHQGLSSPVTKSFNRGECGSGATNFSLLKQAGDVEENPG
heavy chain: EVQLVESDGGLVQPGRSLKLPCAASGFTFSDYYMAWVRQAPTKGLEWVASISYDGSSTYYRDSVKGRFTISRDNAKSTLYLQMDSLRSEDTATYYCGRHSSYFDYWGQGVMVTVSSASTKGPSVFPLAPCSRSTSESTAALGCLVKDYFPEPVTVSWNSGALTSGVHTFPAVLQSSGLYSLSSVVTVPSSNFGTQTYTCNVDHKPSNTKVDKTVERKCCVECPPCPAPPVAGPSVFLFPPKPKDTLMISRTPEVTCVVVDLDDDDQEVQFNWYVDGVEVHNAKTKPREEQFNSTFRVVSVLTVVHQDWLNGKEYKCKVSNKGLPAPIEKTISKTKGQPREPQVYTLPPSREEMTKNQVSLTCLVKGFYPSDIAVEWESNGQPENNYKTTPPMLDSDGSFFLYSKLTVDKSRWQQGNVFSCSVMHEALHNHYTQKSLSLSPGKLEPPPSTVSNMATVAVLVVLGAAIVTGAVVAFVMKMRRRNTGGKGGDYALAPGSQTSDLSLPDCKVMVHDPHSLA
notes: As m1 with the Fc mutations
Consider B4, for which, in the test with Biotin-FcγRIIB, the “enrichment factor, percentage after 1st sorting/percentage before sorting” value turned out to be 122 ratio; the “enrichment factor, percentage after 2nd sorting/percentage after 1st sorting” value came out at 4.07 ratio; the “enrichment factor, percentage after 3rd sorting/percentage after 2nd sorting” value was 3.8 ratio; the “enrichment factor, percentage after 3rd sorting/percentage before sorting” value was determined as 1880 ratio. In the test with Biotin-FcγRIIB, the “increased factor, mutant enrichment factor/wild-type enrichment factor” value came out at 1340 ratio; the “percentage after 1st sorting” value is 0.12%; the “percentage after 2nd sorting” value came to 0.49%; the “percentage after 3rd sorting” value came to 1.88%. For the same molecule, the percentage before sorting with Biotin-FcγRIIB was 0%.
